Measured values from IntAct's records for PubMed 18715871.

B1: Serine/threonine-protein phosphatase 4 catalytic subunit (Homo sapiens), P60510 (parent)
chain: MAEISDLDRQIEQLRRCELIKESEVKALCAKAREILVEESNVQRVDSPVTVCGDIHGQFYDLKELFRVGGDVPETNYLFMGDFVDRGFYSVETFLLLLALKVRYPDRITLIRGNHESRQITQVYGFYDECLRKYGSVTVWRYCTEIFDYLSLSAIIDGKIFCVHGGLSPSIQTLDQIRTIDRKQEVPHDGPMCDLLWSDPEDTTGWGVSPRGAGYLFGSDVVAQFNAANDIDMICRAHQLVMEGYKWHFNETVLTVWSAPNYCYRCGNVAAILELDEHLQKDFIIFEAAPQETRGIPSKKPVADYFL
partner: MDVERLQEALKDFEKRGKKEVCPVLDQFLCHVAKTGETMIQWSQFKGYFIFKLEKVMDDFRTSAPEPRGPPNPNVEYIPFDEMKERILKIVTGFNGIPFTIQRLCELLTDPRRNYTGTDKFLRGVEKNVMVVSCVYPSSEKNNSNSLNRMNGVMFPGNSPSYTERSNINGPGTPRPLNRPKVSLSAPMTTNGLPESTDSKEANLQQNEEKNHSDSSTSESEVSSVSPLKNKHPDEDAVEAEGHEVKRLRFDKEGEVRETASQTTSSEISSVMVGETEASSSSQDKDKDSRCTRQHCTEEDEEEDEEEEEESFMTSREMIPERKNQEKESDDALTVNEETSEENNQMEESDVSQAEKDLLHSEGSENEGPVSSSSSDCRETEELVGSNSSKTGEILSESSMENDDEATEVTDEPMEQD
B2: Serine/threonine-protein phosphatase 4 catalytic subunit (Homo sapiens), P60510 (parent)
chain: B1 chain
partner: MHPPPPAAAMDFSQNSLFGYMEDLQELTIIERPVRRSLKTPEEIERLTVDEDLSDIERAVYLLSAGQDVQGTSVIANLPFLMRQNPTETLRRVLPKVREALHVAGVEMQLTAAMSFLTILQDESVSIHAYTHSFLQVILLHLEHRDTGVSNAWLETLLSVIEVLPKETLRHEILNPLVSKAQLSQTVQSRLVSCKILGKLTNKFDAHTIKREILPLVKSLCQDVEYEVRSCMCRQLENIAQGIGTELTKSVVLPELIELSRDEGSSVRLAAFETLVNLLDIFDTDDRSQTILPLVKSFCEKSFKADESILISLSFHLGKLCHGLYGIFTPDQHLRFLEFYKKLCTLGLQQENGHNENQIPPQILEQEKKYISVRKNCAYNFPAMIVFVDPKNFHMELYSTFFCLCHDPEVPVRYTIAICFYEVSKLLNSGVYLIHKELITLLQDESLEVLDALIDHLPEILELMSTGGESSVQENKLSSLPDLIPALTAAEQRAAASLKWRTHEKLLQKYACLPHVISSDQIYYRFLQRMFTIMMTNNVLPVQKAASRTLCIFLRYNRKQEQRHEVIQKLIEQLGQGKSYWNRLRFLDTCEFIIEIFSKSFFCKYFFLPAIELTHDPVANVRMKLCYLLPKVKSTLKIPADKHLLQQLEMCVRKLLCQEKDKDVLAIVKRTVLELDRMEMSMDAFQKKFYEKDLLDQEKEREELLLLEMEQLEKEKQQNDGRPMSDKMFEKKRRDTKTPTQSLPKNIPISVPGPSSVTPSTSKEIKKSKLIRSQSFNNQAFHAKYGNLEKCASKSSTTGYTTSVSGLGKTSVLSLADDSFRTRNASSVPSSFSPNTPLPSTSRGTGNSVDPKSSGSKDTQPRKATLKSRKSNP

Variants of: B1
Conditions: with pp4r2_human PPP4R2, Q9NY27

| Variant | effect of a mutation on the interaction |
| --- | --- |
| MAEISDLDRQIEQLRRCELIKESEVKALCAKAREILVEESNVQRVDSPVTVCGDIHGQFYDLKELFRVGGDVPETNYLFMGDFVDRGFYSVETFLLLLALKVRYPDEITLIRGNHESRQITQVYGFYDECLRKYGSVTVWRYCTEIFDYLSLSAIIDGKIFCVHGGLSPSIQTLDQIRTIDRKQEVPHDGPMCDLLWSDPEDTTGWGVSPRGAGYLFGSDVVAQFNAANDIDMICRAHQLVMEGYKWHFNETVLTVWSAPNYCYRCGNVAAILELDEHLQKDFIIFEAAPQETRGIPSKKPVADYFL [R107E] | disrupting interaction |
| MAEISDLDRQIEQLRRCELIKESEVKALCAKAREILVEESNVQRVDSPVTVCGDIHGQFYDLKELFRVGGDVPETNYLFMGDFVDRGFYSVETFLLLLALKVRYPDRITLIRGNHESRQITQVYGFYDECLRKYGSVTVWRYCTEIFDYLSLSAIIDGKIFCVHGGLSPSIQTLDQIRTIDRKQEVPHDGPMCDLLWSDPEDTTGWGVSPRGAGYLFGSDVVAQFNAANDIDMICRAHQLVMEGYKWHFNETVLTVWSAPNYCYRCGNVAAILELDKHLQKDFIIFEAAPQETRGIPSKKPVADYFL [E277K] | decreasing interaction |

The next lines start with the values.

| effect of a mutation on the interaction | Variant |
| --- | --- |
| disrupting interaction | MAEISDLDRQIEQLRRCELIKESEVKALCAKAREILVEESNVQRVDSPVTVCGDIHGQFYDLKELFRVGGDVPETDYLFMGDFVDRGFYSVETFLLLLALKVRYPDRITLIRGNHESRQITQVYGFYDECLRKYGSVTVWRYCTEIFDYLSLSAIIDGKIFCVHGGLSPSIQTLDQIRTIDRKQEVPHDGPMCDLLWSDPEDTTGWGVSPRGAGYLFGSDVVAQFNAANDIDMICRAHQLVMEGYKWHFNETVLTVWSAPNYCYRCGNVAAILELDEHLQKDFIIFEAAPQETRGIPSKKPVADYFL [N76D] |
| disrupting interaction | MAEISDLDRQIEQLRRCELIKESEVKALCAKAREILVEKSNVQRVDSPVTVCGDIHGQFYDLKELFRVGGDVPETNYLFMGDFVDRGFYSVETFLLLLALKVRYPDRITLIRGNHESRQITQVYGFYDECLRKYGSVTVWRYCTEIFDYLSLSAIIDGKIFCVHGGLSPSIQTLDQIRTIDRKQEVPHDGPMCDLLWSDPEDTTGWGVSPRGAGYLFGSDVVAQFNAANDIDMICRAHQLVMEGYKWHFNETVLTVWSAPNYCYRCGNVAAILELDEHLQKDFIIFEAAPQETRGIPSKKPVADYFL [E39K] |

Variants of: B2
Conditions: with pp4r4_human PPP4R4, Q6NUP7

| effect of a mutation on the interaction | Variant |
| --- | --- |
| decreasing interaction | MAEISDLDRQIEQLRRCELIKESEVKALCAKAREILVEESNVQRVDSPVTVCGDIHGQFYDLKELFRVGGDVPETNYLFMGDFVDRGFYSVETFLLLLALKVRYPDEITLIRGNHESRQITQVYGFYDECLRKYGSVTVWRYCTEIFDYLSLSAIIDGKIFCVHGGLSPSIQTLDQIRTIDRKQEVPHDGPMCDLLWSDPEDTTGWGVSPRGAGYLFGSDVVAQFNAANDIDMICRAHQLVMEGYKWHFNETVLTVWSAPNYCYRCGNVAAILELDEHLQKDFIIFEAAPQETRGIPSKKPVADYFL [R107E] |
| disrupting interaction | MAEISDLDRQIEQLRRCELIKESEVKALCAKAREILVEESNVQRVDSPVTVCGDIHGQFYDLKELFRVGGDVPETNYLFMGDFVDRGFYSVETFLLLLALKVRYPDRITLIRGNHESRQITQVYGFYDECLRKYGSVTVWRYCTEIFDYLSLSAIIDGKIFCVHGGLSPSIQTLDQIRTIDRKQEVPHDGPMCDLLWSDPEDTTGWGVSPRGAGYLFGSDVVAQFNAANDIDMICRAHQLVMEGYKWHFNETVLTVWSAPNYCYRCGNVAAILELDKHLQKDFIIFEAAPQETRGIPSKKPVADYFL [E277K] |
| decreasing interaction | MAEISDLDRQIEQLRRCELIKESEVKALCAKAREILVEESNVQRVDSPVTVCGDIHGQFYDLKELFRVGGDVPETDYLFMGDFVDRGFYSVETFLLLLALKVRYPDRITLIRGNHESRQITQVYGFYDECLRKYGSVTVWRYCTEIFDYLSLSAIIDGKIFCVHGGLSPSIQTLDQIRTIDRKQEVPHDGPMCDLLWSDPEDTTGWGVSPRGAGYLFGSDVVAQFNAANDIDMICRAHQLVMEGYKWHFNETVLTVWSAPNYCYRCGNVAAILELDEHLQKDFIIFEAAPQETRGIPSKKPVADYFL [N76D] |
| disrupting interaction | MAEISDLDRQIEQLRRCELIKESEVKALCAKAREILVEESNVQRVDSPVTVCGDIHGQFYDLKKLFRVGGDVPETNYLFMGDFVDRGFYSVETFLLLLALKVRYPDRITLIRGNHESRQITQVYGFYDECLRKYGSVTVWRYCTEIFDYLSLSAIIDGKIFCVHGGLSPSIQTLDQIRTIDRKQEVPHDGPMCDLLWSDPEDTTGWGVSPRGAGYLFGSDVVAQFNAANDIDMICRAHQLVMEGYKWHFNETVLTVWSAPNYCYRCGNVAAILELDEHLQKDFIIFEAAPQETRGIPSKKPVADYFL [E64K] |
